This note sets out measurements from US20180346580A1 (INTERVET, published 2018).

Several values for one entry are separate records, joined by “and”; a condition that tells them apart may be missing. Equal values may be shown once.

To fix the notation:
B2: canine IL-4 (R&D system, cat #754-CL/CF), biotinylated (ligand, UniProt O77762 25-132, looked up)
chain: HNFNITIKEIIKMLNILTARNDSCMELTVKDVFTAPKNTSDKEIFCRAATVLRQIYTHNCSNRYLRGLYRNLSSMANKTCSMNEIKKSTLKDFLERLKVIMQKKYYRH
modifications: biotinylated with Lightning-Link Biotin Conjugation Kit Type A
notes: Purchased protein; also called canine interleukin-4; biotinylated canine IL-4
B3: canine IL-4 receptor alpha chain (full length) expressed on the surface of CHO DG44 cells (receptor)
chain: VKVLHEPSCFSDYISTSVCQWKMDHPTNCSAELRLSYQLDFMGSENHTCVPENREDSVCVCSMPIDDAVEADVYQLDLWAGQQLLWSGSFQPSKHVKPRTPGNLTVHPNISHTWLLMWTNPYPTENHLHSELTYMVNVSNDNDPEDFKVYNVTYMGPTLRLAASTLKSGASYSARVRAWAQTYNSTWSDWSPSTTWLNYYEPWEQHLPLGVSISCLVILAICLSCYFSIIKIKKGWWDQIPNPAHSPLVAIVIQDSQVSLWGKRSRGQEPAKCPHWKTCLTKLLPCLLEHGLGREEESPKTAKNGPLQGPGKPAWCPVEVSKTILWPESISVVQCVELSEAPVDNEEEEEVEEDKRSLCPSLEGSGGSFQEGREGIVARLTESLFLDLLGGENGGFCPQGLEESCLPPPSGSVGAQMPWAQFPRAGPRAAPEGPEQPRRPESALQASPTQSAGSSAFPEPPPVVTDNPAYRSFGSFLGQSSDPGDGDSDPELADRPGEADPGIPSAPQPPEPPAALQPEPESWEQILRQSVLQHRAAPAPGPGPGSGYREFTCAVKQGSAPDAGGPGFGPSGEAGYKAFCSLLPGGATCPGTSGGEAGSGEGGYKPFQSLTPGCPGAPTPVPVPLFTFGLDTEPPGSPQDSLGAGSSPEHLGVEPAGKEEDSRKTLLAPEQATDPLRDDLASSIVYSALTCHLCGHLKQWHDQEERGKAHIVPSPCCGCCCGDRSSLLLSPLRAPNVLPGGVLLEASLSPASLVPSGVSKEGKSSPFSQPASSSAQSSSQTPKKLAVLSTEPTCMSAS
notes: also called cIL-4Rα; CHO-cIL-4Rα

Assay [1] deals with B3. The experiment in a line: flow cytometry ligand blockade on CHO-cIL-4Rα cells; competitor biotinylated canine IL-4 at 0.32 µg/mL; one of two separate studies. On the procedure:
Procedure: [0247] 1. CHO-DH44-canIL-4Rα cell grown to 2-4 ×10⁶ cells/mL with more than 96% viability. [0248] 2. The cells were spun down, the supernatant discarded, and the cells were suspended in FACS buffer to 2×10⁷ cells/mL. [0249] 3. The cells were distributed into a U-shape 96-well plate, 50 μl each well. [0250] 4. The anti-canine IL-4Rα mAbs in FACS buffer was diluted three-fold on a 96-well plate from top down to bottom well, starting at 50 μg/mL. [0251] 5. 50 μl of each diluted Ab was transferred into the cell plate and then incubated on ice for 30 min. [0252] 6. The cells were washed twice with FACS buffer. [0253] 7. The cells were resuspended into 100 μl of biotinylated canine IL-4 at 0.32 μg/mL in FACS buffer and incubated on ice for 30 min. [0254] 8. The cells were washed twice with FACS buffer. [0255] 9. The cells were responded into 100 μl of R-phycoerythin conjugated Streptavidin (1:1000 dilution) in FACS buffer and incubated on ice for 30 min. [0256] 10. The cells were washed twice with FACS buffer. [0257] 11. The cells were brought up to 300 μl in FACS buffer. [0258] 12. 10,000 cells were read for each sample by BD Accuri-C6. [0259] 13. The resulting readout were analyzed by FlowJo to get the mean fluorescent intensity (MFI).
On the technique in general: In flow cytometry, cells or beads pass a laser one at a time.

Assay [2] deals with B3. The assay can be described thus: flow cytometry, binding to CHO-cIL-4Rα cells.
Assay [3] deals with B3. The experiment in a line: flow cytometry, cell-based CHO-cIL-4Rα binding assay.
In assay [4] the target is B2. The assay can be described thus: FACS, biotinylated canine IL-4 on CHO cells expressing canine IL-4Rα.

B1: mouse anti-canine IL-4Rα monoclonal antibody 11H2 (antibody, V domains shown)
VH: DVKLVESGGGLVQPGGSLKLSCAASGFTFSDYYMYWVRQTPEKRLEWVAYVSSGGGSIYYPDTVKGRFTISRDNAKNTLYLQMSRLKSEDTAMYYCARHGSPFGSSRGAWFAYWGQGTLVTVSA
VL: DIQMTQSPASLSASVGETVTITCRASENIYSYLAWYQQKQGKSPQLLVYNAKTLAEGVPSRFSGSGSGTQFSLKINSLQPEDFGNYYCQHYDGFPFTFGGGTKLELK
notes: Hybridoma-derived mouse antibody; also called mAb 11H2
As a reminder, the IC50 is the concentration that gives 50% inhibition. Low values mean greater potency, high ones weaker potency. What is called EC50 is the concentration that produces a half-maximal response. The low end stands for greater potency, the high end for weaker potency. With B1, in assay [1], the IC50 is 1.7 nM and 1 nM. The molecule further gave an EC50 in assay [2] of 1.2 nM.

Regarding B2, the midpoint of the response in assay [3], the EC50, lay at 25 nM. Take B3: the binding result in assay [4] is “binds”.
